Measurements from paper PMC7337384.

Molecular target: RaTG13 S-protein receptor-binding domain fused to the Fc domain of human IgG1 (bat coronavirus RaTG13)
Assay: SPR

soluble monomeric human ACE2-NN (enzymatically inactive human ACE2 lacking its active-site histidines) (domain or fragment)
Kd: > 35 µM
